This is an account of results in patent US20230036060A1, “DUAL-CONTROLLED DRUG AND PHOTOACTIVATABLE SYSTEM FOR SPATIOTEMPORAL CONTROL OF CELL THERAPY” (THE REGENTS OF THE UNIVERSITY OF CALIFORNIA, priority 2019, published 2023).

For one experiment, the target named is NLS-pMag-CreC. Kind of experiment: cell-based or functional assay.
In experiment [1] the target is CIB1-CreC(106-343) (Arabidopsis thaliana) (UniProt Q8GY61). Kind of experiment: cell-based or functional assay.

Sequence of CreN(19-59)-nMag-NLS (P06956 19-59): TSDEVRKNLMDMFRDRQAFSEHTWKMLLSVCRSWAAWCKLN
Sequence of NLS-pMag-CreC (chain, as listed by the source): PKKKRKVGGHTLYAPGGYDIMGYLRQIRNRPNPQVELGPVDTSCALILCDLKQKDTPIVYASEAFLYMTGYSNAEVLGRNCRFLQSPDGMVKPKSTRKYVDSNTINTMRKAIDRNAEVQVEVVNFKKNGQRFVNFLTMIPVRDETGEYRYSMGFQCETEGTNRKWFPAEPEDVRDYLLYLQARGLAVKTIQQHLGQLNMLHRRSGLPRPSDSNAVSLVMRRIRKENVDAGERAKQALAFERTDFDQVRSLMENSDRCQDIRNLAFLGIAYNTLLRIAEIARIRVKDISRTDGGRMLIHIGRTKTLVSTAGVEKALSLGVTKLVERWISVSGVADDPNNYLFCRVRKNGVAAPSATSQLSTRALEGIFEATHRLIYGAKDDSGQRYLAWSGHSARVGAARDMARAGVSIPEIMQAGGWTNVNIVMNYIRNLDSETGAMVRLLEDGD

As to “CreN(19-59)-nMag-NLS (from UniProt P06956 19-59)”, in the experiment with NLS-pMag-CreC, the fold increase in Cre-loxP recombination, PA-Cre-M, Light against Dark was found to be 3.4 fold; the fold increase in recombined PA-Cre-M+ CAR Reporter Jurkat T cells, Light against Dark came out at 4.1 fold; the normalized % recombined (CAR-EGFP+) PA-Cre-M+ CAR Reporter Jurkat T cells, Dark stood at 5.2%; the normalized % recombined (CAR-EGFP+) PA-Cre-M+ CAR Reporter Jurkat T cells, Light, Protocol E amounted to 21.2%. Further, in the experiment with NLS-pMag-CreC, the normalized % recombined (EGFP+) EGFP Reporter HEK293T cells, PA-Cre-M, Light (30 W/m2, 30 s) turned out to be 90.8%; the normalized % recombined EGFP Reporter HEK293T cells, PA-Cre-M, Ambient light came to 28.9%; the normalized % recombined EGFP Reporter HEK293T cells, PA-Cre-M, Ambient, Protocol B experiment worked out at 45.2%; the normalized % recombined EGFP Reporter HEK293T cells, PA-Cre-M, Dark (pulsatile protocol experiment) stood at 20.4%. For the same substance, in the experiment with NLS-pMag-CreC, the normalized % recombined EGFP Reporter HEK293T cells, PA-Cre-M, Dark (spontaneous background) was determined as 26.7%; the normalized % recombined EGFP Reporter HEK293T cells, PA-Cre-M, Dark, Protocol B experiment is 32.9%; the normalized % recombined EGFP Reporter HEK293T cells, PA-Cre-M, Light, Protocol B is 84.8%.
Regarding “CRY2(L348F)-CreN(19-104) (from UniProt Q96524 1-612; P06956 19-104)”, in experiment [1], the fold increase in Cre-loxP recombination, PA-Cre-C, Light against Dark worked out at 2.1 fold and the normalized % recombined (EGFP+) EGFP Reporter HEK293T cells, PA-Cre-C, Light (30 W/m2, 30 s) was found to be 12.1%.
